Here are results for one molecule from patent publication US20260265348A1.

The Kd is the concentration at which binding is half-saturated. For orientation: koff means the rate constant with which the complex falls apart. The term kon denotes the rate constant with which the complex forms.

For this experiment, the target named is recombinant HSV-2G glycoprotein B (gB) ectodomain (aa 22-724), trimeric (HSV-2 strain G). Nature of the experiment: bio-layer interferometry (Octet), dilution series on HSV-2 recombinant gB. For orientation: Biolayer interferometry detects binding as a change in optical thickness at a sensor tip.

B1: HDIT102(H4), fully human IgG1 anti-HSV gB antibody (antibody, V domains shown)
VH: EVQLVQSGAEVKTPGASVRVSCKASGHTFRTFDINWVRQAAGQGLEWMGWMSPNSGNTGYARQFQGRVTMTRNISANTAYMELRGLRFDDTAVYYCARGPGSTGTTGSMDVWGQGTTVTVSS
VL: QAGLTQPPSVSVAPGKTARISCGGNNIGSKSVHWYQQKPGQAPVLVIYYDSDRPSGIPERFSGSNSGNTATLTISRVEAGDEADYYCQVWDSGSVVFGGGTKLTVLG
Take B1: the Kd was under 1 pM, the koff was under 1e-07 s⁻¹ and the kon amounted to 727000 M⁻¹ s⁻¹.
